Data from the RNAGym collection of RNA variant scans (doi:10.1101/gr.219683.116).

B1: mRNA-splicing (parent)
chain: AGUUGCUGCUGGGAGCUCCAGCACAGUGAAAUGGACAGAAGGGCAGAGCAA

Variants of: B1
Experiment: exon inclusion enrichment index; higher = more inclusion; WT1 exon 5 minigene, HEK293

| Variant | exon inclusion enrichment index |
| --- | --- |
| AGUUCUUCUCGGGAGCGCCAGCACAGUGAAAUGGACAGAAGGGCAGAGCAA | 1.65 |
| AGUUCUUCUCGGGAGCACCAGCACAGUGAAAUGGACAGAAGGGCAGAGCAA | 1.95 |
| AGUUCUUCUCGGGAGCCCCAGCACAGUGAAAUGGACAGAAGGGCAGAGCAA | 1.43 |
| AGUUCUUCUCGGGAGCUCCAGCACAGGCAAAUGGACAGAAGGGCAGAGCAA | 1.04 |
| AGUUCUUCUCGGGAGCUCCAGCACAGGUAAAUGGACAGAAGGGCAGAGCAA | 0.00454 |
| AGUUCUUCUCGGGAGCUCCAGCACAGGAAAAUGGACAGAAGGGCAGAGCAA | 2.11 |
| AGUUCUUCUCGGGAGCAACAGCACAGUGAAAUGGACAGAAGGGCAGAGCAA | 1.32 |
| AGUUCUUCUCGGGAGCAUCAGCACAGUGAAAUGGACAGAAGGGCAGAGCAA | 1.58 |
| AGUUCUUCUCGGGAGCAGCAGCACAGUGAAAUGGACAGAAGGGCAGAGCAA | 1.83 |
| AGUUCUUCUCGGGAGCUCCAGCACAGAAAAAUGGACAGAAGGGCAGAGCAA | 2.06 |
| AGUUCUUCUCGGGAGCUCCAGCACAGAUAAAUGGACAGAAGGGCAGAGCAA | 0.824 |
| AGUUCUUCUCGGGAGCUCCAGCACAGACAAAUGGACAGAAGGGCAGAGCAA | 2.07 |
| AGUUCUUCUCGGGAGCUCCAGCACAGUGAAAUGGACAGAAGGGCAUGGCAA | 1.76 |
| AGUUCUUCUCGGGAGCUCCAGCACAGUGAAAUGGACAGAAGGGCAUCGCAA | 2.75 |
| AGUUCUUCUCGGGAGCUCCAGCACAGUGAAAUGGACAGAAGGGCAUUGCAA | 2.05 |
| AGUUCUUCUCGGGAGCUCCAGCACAGCCAAAUGGACAGAAGGGCAGAGCAA | 2.52 |
| AGUUCUUCUCGGGAGCUCCAGCACAGCUAAAUGGACAGAAGGGCAGAGCAA | 1.2 |
| AGUUCUUCUCGGGAGCUCCAGCACAGCAAAAUGGACAGAAGGGCAGAGCAA | 1.89 |
| AGUUCUUCUCGGGAGCUCCAGCACAGUGAAAAGGACAGAAGGGCAGAGCAA | 1.46 |
| AGUUCUUCUCGGGAGCUCCAGCACAGUGAAAUGGACAGAAGGGCACAGCAA | 1.62 |
| AGUUCUUCUCGGGAGCUCCAGCACAGUGAAAUGGACAGAAGGGCAAAGCAA | 2.05 |
| AGUUCUUCUCGGGAGCUCCAGCACAGUGAAAUGGACAGAAGGGCAUAGCAA | 1.35 |
| AGUUCUUCUCGGGAGCUCCAGCACAGAGAAAUGGACAGAAGGGCAGAGCAA | 2.29 |
| AGUUCUUCUCGGGAGCUCCAGCACAGCGAAAUGGACAGAAGGGCAGAGCAA | 3.63 |
| AGUUCUUCUCGGGAGCUCCAGCACAGGGAAAUGGACAGAAGGGCAGAGCAA | 0.69 |
| AGUUCUUCUCGGGAGCUCCAGCACAGUGAAAUGGACAGAAGGCCAGAGCAA | 1.75 |

| Variant | exon inclusion enrichment index |
| --- | --- |
| AGUUCUUCUCGGGAGCUCCAGCACAGUGAAAUGGACAGAAGGUCAGAGCAA | 1.51 |
| AGUUCUUCUCGGGAGCUCCAGCACAGUGAAAUGGACAGAAGGGCAAGGCAA | 0.717 |
| AGUUCUUCUCGGGAGCUCCAGCACAGUGAAAUGGACAGAAGGGCAACGCAA | 2.56 |
| AGUUCUUCUCGGGAGCUCCAGCACAGUGAAAUGGACAGAAGGGCAAUGCAA | 2.29 |
| AGUUCUUCUCGGGAGCUCCAGCACAGUGAAAUGGACAGAAGGGCACGGCAA | 2.72 |
| AGUUCUUCUCGGGAGCUCCAGCACAGUGAAAUGGACAGAAGGGCACCGCAA | 1.76 |
| AGUUCUUCUCGGGAGCUCCAGCACAGUGAAAUGGACAGAAGGGCACUGCAA | 1.64 |
| AGUUCUUCUCGGGAGCUCCAGCACAGUGAAAAAGACAGAAGGGCAGAGCAA | 0.758 |
| AGUUCUUCUCGGGAGCUCCAGCACAGUGAAAAUGACAGAAGGGCAGAGCAA | 1.25 |
| AGUUCUUCUCGGGAGCUCCAGCACAGUGAAAACGACAGAAGGGCAGAGCAA | 2.37 |
| AGUUCUUCUCGGGAGCUCCAGCACAGUGAAAUGGACAGAAGGCUAGAGCAA | 1.6 |
| AGUUCUUCUCGGGAGCUCCAGCACAGUGAAAUGGACAGAAGGCGAGAGCAA | 4.6 |
| AGUUCUUCUCGGGAGCUCCAGCACAGUGAAAUGGACAGAAGGCAAGAGCAA | 3.17 |
| AGUUCUUCUCGGGAGCCGCAGCACAGUGAAAUGGACAGAAGGGCAGAGCAA | 2.39 |
| AGUUCUUCUCGGGAGCCACAGCACAGUGAAAUGGACAGAAGGGCAGAGCAA | 1.45 |
| AGUUCUUCUCGGGAGCCUCAGCACAGUGAAAUGGACAGAAGGGCAGAGCAA | 1.9 |
| AGUUCUUCUCGGGAGCUCCAGCACAGUGAAAUGGACAGAAGGUUAGAGCAA | 0.567 |
| AGUUCUUCUCGGGAGCUCCAGCACAGUGAAAUGGACAGAAGGUAAGAGCAA | 0.0354 |
| AGUUCUUCUCGGGAGCUCCAGCACAGUGAAAUGGACAGAAGGUGAGAGCAA | 0.398 |
| AGUUCUUCUCGGGAGCUCCAGCACAGUGAAAUGGACAGAAGGGCAGAACAA | 2.76 |
| AGUUCUUCUCGGGAGCUCCAGCACAGUGAAAUGGACAGAAGGGCAGAUCAA | 2.26 |
| AGUUCUUCUCGGGAGCUCCAGCACAGUGAAAUGGACAGAAGGGCAGACCAA | 2.43 |
| AGUUCUUCUCGGGAGCGACAGCACAGUGAAAUGGACAGAAGGGCAGAGCAA | 2 |
| AGUUCUUCUCGGGAGCGGCAGCACAGUGAAAUGGACAGAAGGGCAGAGCAA | 1.96 |
| AGUUCUUCUCGGGAGCGUCAGCACAGUGAAAUGGACAGAAGGGCAGAGCAA | 1.64 |
